Molecular target: T1, Gα12 (human, UniProt Q03113 1-381)
T1 sequence: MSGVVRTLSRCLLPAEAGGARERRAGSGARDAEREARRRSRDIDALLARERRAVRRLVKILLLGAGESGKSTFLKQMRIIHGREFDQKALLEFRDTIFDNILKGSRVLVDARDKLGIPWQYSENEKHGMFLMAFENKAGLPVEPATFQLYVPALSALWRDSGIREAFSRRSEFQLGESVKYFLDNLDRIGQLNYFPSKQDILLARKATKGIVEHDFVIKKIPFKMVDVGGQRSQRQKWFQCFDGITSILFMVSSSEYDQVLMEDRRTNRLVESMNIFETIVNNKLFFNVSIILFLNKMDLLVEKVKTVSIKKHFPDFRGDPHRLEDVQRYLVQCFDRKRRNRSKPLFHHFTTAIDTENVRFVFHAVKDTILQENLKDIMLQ
Test: cell-based or functional assay

B1: M3-muscarinic acetylcholine receptor (M3R) (receptor)
chain: not shown
- SRE-luciferase reporter activity after carbachol stimulation (10 µM, 6 hours): 76
